Reference: US20260049138A1 (Chugai, published 2026)

B1: GLS3000 V94W one-arm antibody (antibody, human IgG1, kappa, L234A L235A, N297A, name in Kabat numbering)
heavy: QVQLVESGGGVVQPGRSLRLSCAASGFTFSNAWMHWVRQAPGKGLEWVAQIKAKSNNYATYYAESVKGRFTISRDDSKNSLYLQMNSLKTEDTAVYYCRYVHYGAYYGVDAWGQGTTVTVSSASTKGPSVFPLAPSSKSTSGGTAALGCLVKDYFPEPVTVSWNSGALTSGVHTFPAVLQSSGLYSLSSVVTVPSSSLGTQTYICNVNHKPSNTKVDKKVEPKSCDKTHTCPPCPAPEAAGGPSVFLFPPKPKDTLMISRTPEVTCVVVDVSHEDPEVKFNWYVDGVEVHNAKTKPREEQYASTYRVVSVLTVLHQDWLNGKEYKCKVSNKALPAPIEKTISKAKGQPREPQVYTLPPSRCELTKNQVSLSCAVKGFYPSDIAVEWESNGQPENNYKTTPPVLDSDGSFFLVSKLTVDKSRWQQGNVFSCSVMHEALHNHYTQKSLSLSPDYKDDDDK
chain: EPKSSDKTHTCPPCPAPELLGGPSVFLFPPKPKDTLMISRTPEVTCVVVDVSHEDPEVKFNWYVDGVEVHNAKTKPREEQYNSTYRVVSVLTVLHQDWLNGKEYKCKVSNKALPAPIEKTISKAKGQPREPQVCTLPPSRDELTKNQVSLWCLVKGFYPSDIAVEWESNGQPENNYKTTPPVLDSDGSFFLYSKLTVDKSRWQQGNVFSCSVMHEALHNRYTQKSLSLSP
light: DIVMTQSPLSLPVTPGEPASISCRSSQSLVHSNRNTYLHWYQQKPGQAPRLLIYKVSNRFSGVPDRFSGSGSGTDFTLKISRVEAEDVGVYYCGQGTQWPYTFGQGTKLEIKRTVAAPSVFIFPPSDEQLKSGTASVVCLLNNFYPREAKVQWKVDNALQSGNSQESVTEQDSKDSTYSLSSTLTLSKADYEKHKVYACEVTHQGLSSPVTKSFNRGEC
B2: GLS3000 Y32A one-arm antibody (antibody, human IgG1, kappa, L234A L235A, N297A, name in Kabat numbering)
heavy: QVQLVESGGGVVQPGRSLRLSCAASGFTFSNAWMHWVRQAPGKGLEWVAQIKAKSNNYATYYAESVKGRFTISRDDSKNSLYLQMNSLKTEDTAVYYCRYVHYGAYYGVDAWGQGTTVTVSSASTKGPSVFPLAPSSKSTSGGTAALGCLVKDYFPEPVTVSWNSGALTSGVHTFPAVLQSSGLYSLSSVVTVPSSSLGTQTYICNVNHKPSNTKVDKKVEPKSCDKTHTCPPCPAPEAAGGPSVFLFPPKPKDTLMISRTPEVTCVVVDVSHEDPEVKFNWYVDGVEVHNAKTKPREEQYASTYRVVSVLTVLHQDWLNGKEYKCKVSNKALPAPIEKTISKAKGQPREPQVYTLPPSRCELTKNQVSLSCAVKGFYPSDIAVEWESNGQPENNYKTTPPVLDSDGSFFLVSKLTVDKSRWQQGNVFSCSVMHEALHNHYTQKSLSLSPDYKDDDDK
chain: EPKSSDKTHTCPPCPAPELLGGPSVFLFPPKPKDTLMISRTPEVTCVVVDVSHEDPEVKFNWYVDGVEVHNAKTKPREEQYNSTYRVVSVLTVLHQDWLNGKEYKCKVSNKALPAPIEKTISKAKGQPREPQVCTLPPSRDELTKNQVSLWCLVKGFYPSDIAVEWESNGQPENNYKTTPPVLDSDGSFFLYSKLTVDKSRWQQGNVFSCSVMHEALHNRYTQKSLSLSP
light: DIVMTQSPLSLPVTPGEPASISCRSSQSLVHSNRNTALHWYQQKPGQAPRLLIYKVSNRFSGVPDRFSGSGSGTDFTLKISRVEAEDVGVYYCGQGTQVPYTFGQGTKLEIKRTVAAPSVFIFPPSDEQLKSGTASVVCLLNNFYPREAKVQWKVDNALQSGNSQESVTEQDSKDSTYSLSSTLTLSKADYEKHKVYACEVTHQGLSSPVTKSFNRGEC
B3: GLS3000 Y32F one-arm antibody (antibody, human IgG1, kappa, L234A L235A, N297A, name in Kabat numbering)
heavy: QVQLVESGGGVVQPGRSLRLSCAASGFTFSNAWMHWVRQAPGKGLEWVAQIKAKSNNYATYYAESVKGRFTISRDDSKNSLYLQMNSLKTEDTAVYYCRYVHYGAYYGVDAWGQGTTVTVSSASTKGPSVFPLAPSSKSTSGGTAALGCLVKDYFPEPVTVSWNSGALTSGVHTFPAVLQSSGLYSLSSVVTVPSSSLGTQTYICNVNHKPSNTKVDKKVEPKSCDKTHTCPPCPAPEAAGGPSVFLFPPKPKDTLMISRTPEVTCVVVDVSHEDPEVKFNWYVDGVEVHNAKTKPREEQYASTYRVVSVLTVLHQDWLNGKEYKCKVSNKALPAPIEKTISKAKGQPREPQVYTLPPSRCELTKNQVSLSCAVKGFYPSDIAVEWESNGQPENNYKTTPPVLDSDGSFFLVSKLTVDKSRWQQGNVFSCSVMHEALHNHYTQKSLSLSPDYKDDDDK
chain: EPKSSDKTHTCPPCPAPELLGGPSVFLFPPKPKDTLMISRTPEVTCVVVDVSHEDPEVKFNWYVDGVEVHNAKTKPREEQYNSTYRVVSVLTVLHQDWLNGKEYKCKVSNKALPAPIEKTISKAKGQPREPQVCTLPPSRDELTKNQVSLWCLVKGFYPSDIAVEWESNGQPENNYKTTPPVLDSDGSFFLYSKLTVDKSRWQQGNVFSCSVMHEALHNRYTQKSLSLSP
light: DIVMTQSPLSLPVTPGEPASISCRSSQSLVHSNRNTFLHWYQQKPGQAPRLLIYKVSNRFSGVPDRFSGSGSGTDFTLKISRVEAEDVGVYYCGQGTQVPYTFGQGTKLEIKRTVAAPSVFIFPPSDEQLKSGTASVVCLLNNFYPREAKVQWKVDNALQSGNSQESVTEQDSKDSTYSLSSTLTLSKADYEKHKVYACEVTHQGLSSPVTKSFNRGEC
B4: GLS3000 Y32D one-arm antibody (antibody, human IgG1, kappa, L234A L235A, N297A, name in Kabat numbering)
heavy: QVQLVESGGGVVQPGRSLRLSCAASGFTFSNAWMHWVRQAPGKGLEWVAQIKAKSNNYATYYAESVKGRFTISRDDSKNSLYLQMNSLKTEDTAVYYCRYVHYGAYYGVDAWGQGTTVTVSSASTKGPSVFPLAPSSKSTSGGTAALGCLVKDYFPEPVTVSWNSGALTSGVHTFPAVLQSSGLYSLSSVVTVPSSSLGTQTYICNVNHKPSNTKVDKKVEPKSCDKTHTCPPCPAPEAAGGPSVFLFPPKPKDTLMISRTPEVTCVVVDVSHEDPEVKFNWYVDGVEVHNAKTKPREEQYASTYRVVSVLTVLHQDWLNGKEYKCKVSNKALPAPIEKTISKAKGQPREPQVYTLPPSRCELTKNQVSLSCAVKGFYPSDIAVEWESNGQPENNYKTTPPVLDSDGSFFLVSKLTVDKSRWQQGNVFSCSVMHEALHNHYTQKSLSLSPDYKDDDDK
chain: EPKSSDKTHTCPPCPAPELLGGPSVFLFPPKPKDTLMISRTPEVTCVVVDVSHEDPEVKFNWYVDGVEVHNAKTKPREEQYNSTYRVVSVLTVLHQDWLNGKEYKCKVSNKALPAPIEKTISKAKGQPREPQVCTLPPSRDELTKNQVSLWCLVKGFYPSDIAVEWESNGQPENNYKTTPPVLDSDGSFFLYSKLTVDKSRWQQGNVFSCSVMHEALHNRYTQKSLSLSP
light: DIVMTQSPLSLPVTPGEPASISCRSSQSLVHSNRNTDLHWYQQKPGQAPRLLIYKVSNRFSGVPDRFSGSGSGTDFTLKISRVEAEDVGVYYCGQGTQVPYTFGQGTKLEIKRTVAAPSVFIFPPSDEQLKSGTASVVCLLNNFYPREAKVQWKVDNALQSGNSQESVTEQDSKDSTYSLSSTLTLSKADYEKHKVYACEVTHQGLSSPVTKSFNRGEC
B5: GLS3000 V94Y one-arm antibody (antibody, human IgG1, kappa, L234A L235A, N297A, name in Kabat numbering)
heavy: QVQLVESGGGVVQPGRSLRLSCAASGFTFSNAWMHWVRQAPGKGLEWVAQIKAKSNNYATYYAESVKGRFTISRDDSKNSLYLQMNSLKTEDTAVYYCRYVHYGAYYGVDAWGQGTTVTVSSASTKGPSVFPLAPSSKSTSGGTAALGCLVKDYFPEPVTVSWNSGALTSGVHTFPAVLQSSGLYSLSSVVTVPSSSLGTQTYICNVNHKPSNTKVDKKVEPKSCDKTHTCPPCPAPEAAGGPSVFLFPPKPKDTLMISRTPEVTCVVVDVSHEDPEVKFNWYVDGVEVHNAKTKPREEQYASTYRVVSVLTVLHQDWLNGKEYKCKVSNKALPAPIEKTISKAKGQPREPQVYTLPPSRCELTKNQVSLSCAVKGFYPSDIAVEWESNGQPENNYKTTPPVLDSDGSFFLVSKLTVDKSRWQQGNVFSCSVMHEALHNHYTQKSLSLSPDYKDDDDK
chain: EPKSSDKTHTCPPCPAPELLGGPSVFLFPPKPKDTLMISRTPEVTCVVVDVSHEDPEVKFNWYVDGVEVHNAKTKPREEQYNSTYRVVSVLTVLHQDWLNGKEYKCKVSNKALPAPIEKTISKAKGQPREPQVCTLPPSRDELTKNQVSLWCLVKGFYPSDIAVEWESNGQPENNYKTTPPVLDSDGSFFLYSKLTVDKSRWQQGNVFSCSVMHEALHNRYTQKSLSLSP
light: DIVMTQSPLSLPVTPGEPASISCRSSQSLVHSNRNTYLHWYQQKPGQAPRLLIYKVSNRFSGVPDRFSGSGSGTDFTLKISRVEAEDVGVYYCGQGTQYPYTFGQGTKLEIKRTVAAPSVFIFPPSDEQLKSGTASVVCLLNNFYPREAKVQWKVDNALQSGNSQESVTEQDSKDSTYSLSSTLTLSKADYEKHKVYACEVTHQGLSSPVTKSFNRGEC
B6: GLS3000 Y32P one-arm antibody (antibody, human IgG1, kappa, L234A L235A, N297A, name in Kabat numbering)
heavy: QVQLVESGGGVVQPGRSLRLSCAASGFTFSNAWMHWVRQAPGKGLEWVAQIKAKSNNYATYYAESVKGRFTISRDDSKNSLYLQMNSLKTEDTAVYYCRYVHYGAYYGVDAWGQGTTVTVSSASTKGPSVFPLAPSSKSTSGGTAALGCLVKDYFPEPVTVSWNSGALTSGVHTFPAVLQSSGLYSLSSVVTVPSSSLGTQTYICNVNHKPSNTKVDKKVEPKSCDKTHTCPPCPAPEAAGGPSVFLFPPKPKDTLMISRTPEVTCVVVDVSHEDPEVKFNWYVDGVEVHNAKTKPREEQYASTYRVVSVLTVLHQDWLNGKEYKCKVSNKALPAPIEKTISKAKGQPREPQVYTLPPSRCELTKNQVSLSCAVKGFYPSDIAVEWESNGQPENNYKTTPPVLDSDGSFFLVSKLTVDKSRWQQGNVFSCSVMHEALHNHYTQKSLSLSPDYKDDDDK
chain: EPKSSDKTHTCPPCPAPELLGGPSVFLFPPKPKDTLMISRTPEVTCVVVDVSHEDPEVKFNWYVDGVEVHNAKTKPREEQYNSTYRVVSVLTVLHQDWLNGKEYKCKVSNKALPAPIEKTISKAKGQPREPQVCTLPPSRDELTKNQVSLWCLVKGFYPSDIAVEWESNGQPENNYKTTPPVLDSDGSFFLYSKLTVDKSRWQQGNVFSCSVMHEALHNRYTQKSLSLSP
light: DIVMTQSPLSLPVTPGEPASISCRSSQSLVHSNRNTPLHWYQQKPGQAPRLLIYKVSNRFSGVPDRFSGSGSGTDFTLKISRVEAEDVGVYYCGQGTQVPYTFGQGTKLEIKRTVAAPSVFIFPPSDEQLKSGTASVVCLLNNFYPREAKVQWKVDNALQSGNSQESVTEQDSKDSTYSLSSTLTLSKADYEKHKVYACEVTHQGLSSPVTKSFNRGEC

Molecular target: T1, CD3ε homodimer protein (human, UniProt P07766 23-126, limits assumed)
T1 construct: also called CD3 (CD3ε)
Assay: SPR Biacore T200, CD3ε homodimer on chip;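 further: Light-chain single-residue variant antibodies injected over amine-coupled CD3ε homodimer on a CM4 chip at 25 °C, bound amount divided by that of the GLS3000-containing antibody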

T1 sequence (P07766 23-126 limits assumed): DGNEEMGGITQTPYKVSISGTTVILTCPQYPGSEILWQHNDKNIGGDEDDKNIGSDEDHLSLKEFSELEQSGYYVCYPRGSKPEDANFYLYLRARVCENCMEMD

First: B1
Second: B2
The “ratio of amount bound vs unaltered GLS3000” value (“ratio of amount bound” for short) of the first is higher: 0.58 for the first, 0.24 for the second.

First: B3
Second: B4
The “ratio of amount bound” value of the first is higher: 0.29 for the first, 0.23 for the second.

Compared with B5, B6 is lower in “ratio of amount bound” value: 0.63 for the first, 0.24 for the second.
